Measured values from paper PMC6938032 (2020).

Columns and labels:
[1] = target: Neutrophil elastase (Homo sapiens) (UniProt P08246); experiment: progress curve inhibition analysis; settings: cited from earlier work
Neutrophil elastase [2] = target: T1, Neutrophil elastase (Homo sapiens, UniProt P08246); experiment: SPR
T1 chain: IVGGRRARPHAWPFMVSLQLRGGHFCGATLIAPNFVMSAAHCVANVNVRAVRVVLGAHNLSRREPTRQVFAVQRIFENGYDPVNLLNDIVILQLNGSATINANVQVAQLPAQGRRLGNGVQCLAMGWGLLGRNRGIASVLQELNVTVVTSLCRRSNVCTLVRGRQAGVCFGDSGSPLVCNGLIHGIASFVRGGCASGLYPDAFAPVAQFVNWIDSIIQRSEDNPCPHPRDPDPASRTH

Neutrophil elastase [3] = target: T1, Neutrophil elastase; experiment: progress curve inhibition analysis

In the case of EapH1 (from UniProt A0A0H3KEC5), the Ki [1] is given as 0.021 nM.

B1: EapH2 (protein)
chain: AEKDKLPATQKAKEMQNVPYTIAVDGIMAFNQSYLNLPKDSQLSYLDLGNKVKALLYDERGVTPEKIRNAKSAVYTITWKDGSKKEVDLKKDSYTANLFDSNSIKQIDINVKTK
B1 showed a Kd (Neutrophil elastase [2]) of 2.16 nM and a Ki (Neutrophil elastase [3]) of 2.11 nM.
